Data on 2 molecules can be found in article PMC8336837, “Structure of the human C9orf72-SMCR8 complex reveals a multivalent protein interaction architecture” (PLoS Biology, 2021).

Assay [1] addresses T1, full-length C9orf72-SMCR8 complex (GST-tagged) (human, UniProt Q96LT7 1-481; Q8TEV9 1-937).
T1 construct: C9orf72, human, the longer isoform (481 AA); codon-optimised synthetic open reading frame; SMCR8, human, from a human cDNA library; GST on C9orf72 is stated for the GST pull-down; also called GST-tagged C9orf72-SMCR8; source: Sf-9 insect cells, the two proteins co-expressed, purified (Strep-Tactin, size-exclusion chromatography); not shown: GST, N-terminal, kept
T1 sequence (looked up) 1: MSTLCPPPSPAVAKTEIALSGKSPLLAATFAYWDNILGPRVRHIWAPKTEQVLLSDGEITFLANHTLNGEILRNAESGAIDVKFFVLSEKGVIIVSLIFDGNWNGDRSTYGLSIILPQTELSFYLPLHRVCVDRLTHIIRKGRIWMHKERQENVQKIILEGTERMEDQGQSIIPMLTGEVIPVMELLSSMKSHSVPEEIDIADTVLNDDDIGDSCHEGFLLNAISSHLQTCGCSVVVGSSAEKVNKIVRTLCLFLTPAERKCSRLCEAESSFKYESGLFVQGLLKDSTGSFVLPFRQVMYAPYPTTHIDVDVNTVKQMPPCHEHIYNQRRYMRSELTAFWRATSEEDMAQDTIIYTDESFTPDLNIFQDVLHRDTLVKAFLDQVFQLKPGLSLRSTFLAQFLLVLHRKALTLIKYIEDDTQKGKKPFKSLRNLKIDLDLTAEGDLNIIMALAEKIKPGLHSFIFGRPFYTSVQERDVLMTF
T1 sequence (looked up) 2: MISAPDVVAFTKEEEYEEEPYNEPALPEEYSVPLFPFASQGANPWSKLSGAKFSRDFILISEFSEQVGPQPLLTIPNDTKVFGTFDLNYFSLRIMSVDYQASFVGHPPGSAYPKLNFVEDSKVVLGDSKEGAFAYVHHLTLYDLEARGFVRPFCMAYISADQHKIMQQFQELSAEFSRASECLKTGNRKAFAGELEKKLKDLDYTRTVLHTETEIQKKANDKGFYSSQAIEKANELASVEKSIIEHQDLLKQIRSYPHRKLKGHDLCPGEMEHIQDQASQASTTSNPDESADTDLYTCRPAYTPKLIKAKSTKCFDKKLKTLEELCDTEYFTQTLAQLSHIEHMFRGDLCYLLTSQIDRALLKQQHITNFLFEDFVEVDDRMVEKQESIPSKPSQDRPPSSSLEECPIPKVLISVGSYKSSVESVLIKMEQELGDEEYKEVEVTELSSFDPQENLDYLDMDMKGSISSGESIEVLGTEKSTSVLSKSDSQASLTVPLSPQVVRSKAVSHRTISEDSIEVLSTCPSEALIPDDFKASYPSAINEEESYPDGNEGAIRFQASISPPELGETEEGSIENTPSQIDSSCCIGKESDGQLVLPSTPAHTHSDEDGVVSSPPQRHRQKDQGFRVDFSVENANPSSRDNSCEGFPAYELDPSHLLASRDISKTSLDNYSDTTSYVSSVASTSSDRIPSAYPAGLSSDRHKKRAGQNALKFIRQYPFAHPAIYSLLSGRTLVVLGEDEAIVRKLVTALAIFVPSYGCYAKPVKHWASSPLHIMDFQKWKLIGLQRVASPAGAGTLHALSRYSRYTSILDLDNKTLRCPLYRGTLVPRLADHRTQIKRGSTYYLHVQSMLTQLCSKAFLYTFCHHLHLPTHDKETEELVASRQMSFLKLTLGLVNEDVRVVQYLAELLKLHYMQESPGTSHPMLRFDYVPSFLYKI
Kind of assay: SEC; reconstitution of the trimeric complex from purified C9orf72-SMCR8 and WDR41; Superose 6 10/300 GL, 20 mM HEPES pH 8.0, 150 mM NaCl, 2 mM DTT, 3% glycerol. The settings on record: both partners purified.

For assay [2], the target named is T2, SMCR8 (full-length) (human, UniProt Q8TEV9 1-937).
T2 construct: SMCR8, human, open reading frame amplified from a human cDNA library; residues 1-937; also called SMCR8 Fl; source: Sf-9 insect cells, co-expressed with C9orf72, purified (Strep-Tactin, size-exclusion chromatography)
T2 sequence (looked up): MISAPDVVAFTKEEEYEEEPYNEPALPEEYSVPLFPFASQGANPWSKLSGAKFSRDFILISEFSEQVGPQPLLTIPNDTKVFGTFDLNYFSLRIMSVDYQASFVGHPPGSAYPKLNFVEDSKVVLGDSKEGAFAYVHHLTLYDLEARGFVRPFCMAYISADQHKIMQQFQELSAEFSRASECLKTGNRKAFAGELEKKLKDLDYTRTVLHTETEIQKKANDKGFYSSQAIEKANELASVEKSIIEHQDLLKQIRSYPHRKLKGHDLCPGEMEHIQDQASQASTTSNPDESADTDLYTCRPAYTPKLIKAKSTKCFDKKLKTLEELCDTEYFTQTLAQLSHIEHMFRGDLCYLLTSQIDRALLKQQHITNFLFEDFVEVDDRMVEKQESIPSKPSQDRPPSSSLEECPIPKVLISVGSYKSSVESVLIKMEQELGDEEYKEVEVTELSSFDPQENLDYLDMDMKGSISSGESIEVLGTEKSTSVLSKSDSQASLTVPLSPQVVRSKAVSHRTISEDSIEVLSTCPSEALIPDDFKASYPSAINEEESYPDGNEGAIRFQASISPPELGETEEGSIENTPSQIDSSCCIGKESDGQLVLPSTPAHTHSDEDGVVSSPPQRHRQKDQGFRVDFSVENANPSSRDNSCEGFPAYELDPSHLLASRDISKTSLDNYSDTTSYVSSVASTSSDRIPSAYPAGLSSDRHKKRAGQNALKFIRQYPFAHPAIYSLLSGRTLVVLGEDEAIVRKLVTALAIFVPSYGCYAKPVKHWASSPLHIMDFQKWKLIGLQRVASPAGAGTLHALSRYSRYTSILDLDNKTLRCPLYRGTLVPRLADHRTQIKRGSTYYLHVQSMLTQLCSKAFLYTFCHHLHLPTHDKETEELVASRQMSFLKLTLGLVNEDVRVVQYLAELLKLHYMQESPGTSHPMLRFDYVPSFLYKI
Put plainly: cross-linking; DSSO (0.5 to 10 mM, 1 hour at room temperature) on C9orf72-SMCR8 complex mixed with WDR41 in equimolar ratio (200 pmol) in 20 mM HEPES pH 8.0, 150 mM NaCl, 2 mM DTT, 3% glycerol; mass spectrometry after digestion. Particulars: both partners purified.

Assay [3] addresses T3, Strep-SMCR8ΔCC (SMCR8 mutant lacking its coiled-coil region) (human, UniProt Q8TEV9 1-937, missing residues 181 to 250).
T3 construct: SMCR8, human, lacking the coiled-coil region (missing residues 181 to 250); Cloned into pOPINE-3C-eGFP; source: HEK293T, transfected together with C9orf72, in lysate; not shown: twin-strep, N-terminal, kept
T3 sequence (looked up): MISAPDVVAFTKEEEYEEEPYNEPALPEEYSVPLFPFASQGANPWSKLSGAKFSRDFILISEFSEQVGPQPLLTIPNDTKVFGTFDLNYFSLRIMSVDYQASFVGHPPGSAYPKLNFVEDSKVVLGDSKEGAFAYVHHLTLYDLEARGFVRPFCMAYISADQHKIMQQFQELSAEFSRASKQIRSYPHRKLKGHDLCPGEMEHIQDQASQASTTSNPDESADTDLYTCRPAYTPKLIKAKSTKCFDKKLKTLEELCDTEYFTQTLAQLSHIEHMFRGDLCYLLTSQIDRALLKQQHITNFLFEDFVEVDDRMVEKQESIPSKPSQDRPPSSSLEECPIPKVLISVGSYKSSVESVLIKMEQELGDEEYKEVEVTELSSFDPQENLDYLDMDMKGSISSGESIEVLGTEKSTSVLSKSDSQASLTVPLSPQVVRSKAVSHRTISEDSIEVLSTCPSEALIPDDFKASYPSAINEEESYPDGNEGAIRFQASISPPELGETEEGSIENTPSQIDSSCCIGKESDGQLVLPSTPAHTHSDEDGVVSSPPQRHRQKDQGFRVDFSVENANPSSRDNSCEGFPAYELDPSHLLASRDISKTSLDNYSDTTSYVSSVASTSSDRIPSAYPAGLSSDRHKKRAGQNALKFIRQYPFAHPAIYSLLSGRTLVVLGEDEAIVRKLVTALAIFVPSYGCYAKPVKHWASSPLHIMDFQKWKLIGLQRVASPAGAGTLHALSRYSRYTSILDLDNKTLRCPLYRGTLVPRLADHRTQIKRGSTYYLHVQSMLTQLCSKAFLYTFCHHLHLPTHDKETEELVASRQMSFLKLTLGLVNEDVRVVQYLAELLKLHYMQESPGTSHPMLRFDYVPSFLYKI
Put plainly: affinity purification with mass spectrometry; Strep-SMCR8 (WT or ΔCC) and C9orf72 transfected into HEK293T; cells fed or starved 90 minutes (amino acid- and glucose-free media) before lysis; magnetic Strep-Tactin beads; label-free quantification (LFQ), triplicates. Particulars: partners not purified.

B1: WDR41 (full-length) (natural protein, human, UniProt Q9HAD4 1-459, looked up)
chain: MLRWLIGGGREPQGLAEKSPLQTIGEEQTQNPYTELLVLKAHHDIVRFLVQLDDYRFASAGDDGIVVVWNAQTGEKLLELNGHTQKITAIITFPSLESCEEKNQLILTASADRTVIVWDGDTTRQVQRISCFQSTVKCLTVLQRLDVWLSGGNDLCVWNRKLDLLCKTSHLSDTGISALVEIPKNCVVAAVGKELIIFRLVAPTEGSLEWDILEVKRLLDHQDNILSLINVNDLSFVTGSHVGELIIWDALDWTMQAYERNFWDPSPQLDTQQEIKLCQKSNDISIHHFTCDEENVFAAVGRGLYVYSLQMKRVIACQKTAHDSNVLHVARLPNRQLISCSEDGSVRIWELREKQQLAAEPVPTGFFNMWGFGRVSKQASQPVKKQQENATSCSLELIGDLIGHSSSVEMFLYFEDHGLVTCSADHLIILWKNGERESGLRSLRLFQKLEENGDLYLAV
notes: WDR41, human, open reading frame amplified from a human cDNA library; also called WDR41 Fl; source: Sf-9 insect cells, expressed individually, purified (Strep-Tactin, size-exclusion chromatography)
For the molecule B1, the binding result in assay [1] and in assay [2] was “binds” throughout.

B2: WDR41 (in HEK293T cells) (natural protein, human (endogenous in HEK293T), UniProt Q9HAD4 1-459, looked up)
chain: MLRWLIGGGREPQGLAEKSPLQTIGEEQTQNPYTELLVLKAHHDIVRFLVQLDDYRFASAGDDGIVVVWNAQTGEKLLELNGHTQKITAIITFPSLESCEEKNQLILTASADRTVIVWDGDTTRQVQRISCFQSTVKCLTVLQRLDVWLSGGNDLCVWNRKLDLLCKTSHLSDTGISALVEIPKNCVVAAVGKELIIFRLVAPTEGSLEWDILEVKRLLDHQDNILSLINVNDLSFVTGSHVGELIIWDALDWTMQAYERNFWDPSPQLDTQQEIKLCQKSNDISIHHFTCDEENVFAAVGRGLYVYSLQMKRVIACQKTAHDSNVLHVARLPNRQLISCSEDGSVRIWELREKQQLAAEPVPTGFFNMWGFGRVSKQASQPVKKQQENATSCSLELIGDLIGHSSSVEMFLYFEDHGLVTCSADHLIILWKNGERESGLRSLRLFQKLEENGDLYLAV
notes: WDR41, found by mass spectrometry in Strep-Tactin purifications from HEK293T cells (only SMCR8 and C9orf72 plasmids were transfected); source: endogenous, HEK293T lysate
As to B2, in assay [3], the “fold increase of WDR41 (LFQ) against SMCR8 WT fed, fed cells” value is around 4.5 fold and the “fold increase of WDR41 (LFQ) against SMCR8 WT fed, starved cells” value was around 5.5 fold.
